Test results from paper PMC8390522, “The phototroph-specific β-hairpin structure of the γ subunit of FoF1-ATP synthase is important for efficient ATP synthesis of cyanobacteria” (The Journal of Biological Chemistry, 2021).

Biological target: the molecule itself
Assay: SDS-PAGE with immunoblot (oligomer resistant to SDS); purified FoF1 on 16% polyacrylamide gels, immunoblot with anti-c-subunit antibodies; the c subunit runs as a ring above the α subunit

B1: c subunit of FoF1 ATP synthase of Synechocystis sp. PCC 6803 (natural protein, Synechocystis sp. PCC 6803 (endogenous), UniProt P27182 1-81, looked up)
chain: MDSTVAAASVIAAALAVGLGAIGPGIGQGNASGQAVSGIARQPEAEGKIRGTLLLTLAFMESLTIYGLVIALVLLFANPFA
notes: ATP synthase c subunit, Synechocystis sp; Forms the c-ring; also called ssl2615; c-ring; source: endogenous, Synechocystis sp
  binding result: binds
